In paper PMC9210681:
Where a chain is given by its changes, count along the chain named. One block for each substance: values may come before it.

Key:
[1] = biological target: AtsR (NCgl0886), native protein as run on the size exclusion column (Corynebacterium glutamicum); assay: SEC; Superdex 200 10/300 GL; AtsR incubated with an oxidant before the run (CHP in the text, H2O2 in the legend); two species, oxidized dimer and native dimer
[2] = biological target: AtsR (NCgl0886), native protein as run on the size exclusion column (Corynebacterium glutamicum); assay: not stated; reduced AtsR, Additional file 1 Fig. S10A (Purification of AtsR)
[3] = biological target: AtsR (NCgl0886), native protein as run on the size exclusion column (Corynebacterium glutamicum); assay: SEC; Superdex 200 10/300 GL, 50 mM potassium phosphate pH 7.4, 0.15 M NaCl, calibrated with mass markers; native AtsR untreated; AtsR:C123SC187S reduced (20 µM protein with 50 mM DTT)
[4] = test system: T1, AtsR (NCgl0886) (Corynebacterium glutamicum (RES167 parental strain)), ORF:74efc9ce; assay: EMSA; details: 10 mM Tris-HCl pH 7.4 (Fig. 6A legend: pH 8.0), 5 mM MgCl2, 50 mM KCl, 5% glycerol, 0.1% NP40, 1 ug poly(dI:dC), 1 mM DTT, 20 ul, 40 ng DNA, room temperature …
T1 sequence: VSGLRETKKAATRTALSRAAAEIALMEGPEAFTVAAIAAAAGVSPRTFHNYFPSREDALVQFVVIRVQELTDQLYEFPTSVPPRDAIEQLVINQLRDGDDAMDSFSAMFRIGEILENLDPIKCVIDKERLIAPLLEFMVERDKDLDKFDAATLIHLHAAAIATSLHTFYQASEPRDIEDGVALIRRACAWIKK

[5] = test system: T2, AtsR:C123SC187S C123S;C188S (Corynebacterium glutamicum (RES167 parental strain)), ORF:74efc9ce; assay: EMSA; details: 10 mM Tris-HCl pH 7.4 (Fig. 6A legend: pH 8.0), 5 mM MgCl2, 50 mM KCl, 5% glycerol, 0.1% NP40, 1 ug poly(dI:dC), 1 mM DTT, 20 ul, 40 ng DNA, room temperature …
T2 sequence: T1 sequence with C123S, C188S

[6] = biological target: His6-AtsR (Corynebacterium glutamicum); assay: cross-linking; disulfide bond formed by oxidant: 20 µM protein with 5 mM H2O2 or 4 mM CHP for 30 min, boiled, 15% nonreducing SDS-PAGE, Coomassie stain
[7] = biological target: His-tag-free AtsR:C123SC187S (Corynebacterium glutamicum); assay: SEC; Superdex 200 10/300 GL, 50 mM potassium phosphate pH 7.4, 0.15 M NaCl, calibrated with mass markers; native AtsR untreated; AtsR:C123SC187S reduced (20 µM protein with 50 mM DTT)
[8] = test system: AtsR (NCgl0886) (Corynebacterium glutamicum (RES167 parental strain)); assay: EMSA; details: apparent KD; 10 mM Tris-HCl pH 7.4 (Fig. 6A legend: pH 8.0), 5 mM MgCl2, 50 mM KCl, 5% glycerol, 0.1% NP40, 1 ug poly(dI:dC), 1 mM DTT, 20 ul, 40 ng DNA, room temperature …
[9] = test system: AtsR:C123SC187S (Corynebacterium glutamicum (RES167 parental strain)); assay: EMSA; details: apparent KD; unit inferred, nM implied from AtsR; 10 mM Tris-HCl pH 7.4 (Fig. 6A legend: pH 8.0), 5 mM MgCl2, 50 mM KCl, 5% glycerol, 0.1% NP40, 1 ug poly(dI:dC), 1 mM DTT, 20 ul, 40 ng DNA, room temperature …

- stoichiometry N [1]: 2
- stoichiometry N [2]: 2
- stoichiometry N [3]: 2
Substance: AtsR (NCgl0886), native protein as run on the size exclusion column (natural protein)

Substance: GCCCACAGCATAGAACTAAAACAGTATGCTTGTCCTGCTAAATGTGAATTTTTAAGAGATTCATCCCACACAATTACGAAAAAACCAGATTGCCCACAAATTAGTCTTCGAACTTTAATCAACACCACACCCAAAGCTAAACTTGCGCTCGTTGTGCAAAATTGCATTCAGGCTGAAAAATTCCTAAAGGGACTCCGTCCGAATAATTGGAAAGCCCAGAAGAACAGTCAAC (double strand) [Pncgl0887 (fragment A, 232 bp)]
- Kd [4]: 34 nM
- binding [4]: binds
- Kd [5]: 42 nM
- binding [5]: binds

Substance: GTGGGCAGCGGAATTTCCATACCTTTAAGGATATGCACCGGGGGAAACTATGGGGATTTTGGGGGAGGTTGTTACAAAACCATACGTCTGTGAAGATATGACGAGTGCATGCCCAAAATAATGCATAGGAAAAAGGAAGAGTTAACAATGCGTAAAGGAATTTCCCGCGTCCTCTCGGTAGCGGTTGCTAGTTCTATTGGATTCG (double strand) [Pncgl0884 (205 bp)]
- binding [4]: no binding

Substance: GTTGTAGACAACAGTCAGATCGCCGTCATCGTATTCATCAAGAATATTGGTGACCTTCTCACGATCCTCTGCGGATATATCCATGGCAGAATCTGCATCAAAAGTCATCGAGATGATGCCGGTAGTCTCATCTGCACTCAGTGGACTAATCGACTCAATATCTGCGGCGATCTTCTCCGCAGGTACACCCTGAGCCTCCAGGGCTGGGGTCATCTGAGCAGCCACACCCTG (double strand) [ncgl0887 coding region control (232 bp)]
- binding [4]: no binding

- stoichiometry N [6]: 2
Substance: His6-AtsR (natural protein)

- stoichiometry N [7]: 2
Substance: His-tag-free AtsR:C123SC187S (natural protein)

Substance: Pncgl0887 (fragment A, 232 bp)
- Kd [8]: 34 nM
- Kd [9]: 42 nM
